Target: T1, human Factor XII (human, UniProt P00748 20-615)
T1 construct: Zymogen bought from Enzyme Research Laboratories; also called FXII
T1 sequence: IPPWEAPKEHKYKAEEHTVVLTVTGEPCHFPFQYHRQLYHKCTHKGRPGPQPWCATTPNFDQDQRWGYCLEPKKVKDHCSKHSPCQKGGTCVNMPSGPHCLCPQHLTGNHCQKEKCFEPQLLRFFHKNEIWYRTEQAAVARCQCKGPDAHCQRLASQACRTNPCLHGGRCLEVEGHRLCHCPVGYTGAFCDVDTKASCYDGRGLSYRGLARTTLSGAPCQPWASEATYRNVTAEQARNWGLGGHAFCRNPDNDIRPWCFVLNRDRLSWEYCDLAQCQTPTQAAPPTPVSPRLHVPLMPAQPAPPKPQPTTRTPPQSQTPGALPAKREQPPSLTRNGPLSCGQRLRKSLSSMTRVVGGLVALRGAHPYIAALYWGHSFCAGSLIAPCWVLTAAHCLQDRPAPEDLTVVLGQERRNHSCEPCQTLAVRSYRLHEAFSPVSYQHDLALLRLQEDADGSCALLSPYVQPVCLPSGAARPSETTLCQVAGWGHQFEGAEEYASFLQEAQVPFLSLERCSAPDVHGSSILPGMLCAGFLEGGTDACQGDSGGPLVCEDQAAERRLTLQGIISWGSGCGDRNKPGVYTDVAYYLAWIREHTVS
Assay: SPR (Biacore), purified IgG captured on anti-human IgG, FXII 0-500 nM, 1:1 fit, 25 C

Kd: 121 nM
B1: monoclonal antibody 3F7 (fully human IgG4/lambda) (antibody, V domains shown)
VH: EVQLLESGGGLVQPGGSLRLSCAASGFTFSKYIMQWVRQAPGKGLEWVSGIRPSGGTTVYADSVKGRFTISRDNSKNTLYLQMNSLRAEDTAVYYCARALPRSGYLISPHYYYYALDVWGQGTTVTVSS
VL: QSELTQPPSASGTPGQRVTISCSGSSSNIGRNYVYWYQQVPGTAPKLLIYSNNQRPSGVPDRFSGSKSGTSASLVISGLRSEDEADYYCAAWDASLRGVFGGGTKLTVLG
notes: also called 3F7 mAb; MAb 3F7
